Results: patent US20230183318A1

Target: PD-L1
Assay: -; literature value (Cheng et al., 2013)

Kd: 8.2 µM
Substance: PD-1 WT
